Target: T1, AMPKα1, endogenous (mouse), catalytic α1 subunit of adenosine monophosphate-activated protein kinase (mouse (endogenous in primary C57BL/6 …, UniProt Q5EG47 1-559))
T1 construct: AMPK catalytic α1 subunit, encoded by Prkaa1, endogenous in mouse cells; In the cells it may stand with AMPK β and γ subunits; also called α1 subunit of AMPK; encoded by Prkaa1; source: endogenous, primary C57BL/6 MEFs (in situ); endogenous, EL4 cell lysate
Assay: proximity ligation; in situ PLA on primary C57BL/6 MEFs, endogenous proteins; goat anti-AMPKα1 (C20) with rabbit anti-ROQUIN, overnight at 4°C; resting cells or 1 mM arsenite for 1 hr; control PLA GFP:AMPKα1
Conditions: partners not purified

T1 sequence (Q5EG47 whole entry): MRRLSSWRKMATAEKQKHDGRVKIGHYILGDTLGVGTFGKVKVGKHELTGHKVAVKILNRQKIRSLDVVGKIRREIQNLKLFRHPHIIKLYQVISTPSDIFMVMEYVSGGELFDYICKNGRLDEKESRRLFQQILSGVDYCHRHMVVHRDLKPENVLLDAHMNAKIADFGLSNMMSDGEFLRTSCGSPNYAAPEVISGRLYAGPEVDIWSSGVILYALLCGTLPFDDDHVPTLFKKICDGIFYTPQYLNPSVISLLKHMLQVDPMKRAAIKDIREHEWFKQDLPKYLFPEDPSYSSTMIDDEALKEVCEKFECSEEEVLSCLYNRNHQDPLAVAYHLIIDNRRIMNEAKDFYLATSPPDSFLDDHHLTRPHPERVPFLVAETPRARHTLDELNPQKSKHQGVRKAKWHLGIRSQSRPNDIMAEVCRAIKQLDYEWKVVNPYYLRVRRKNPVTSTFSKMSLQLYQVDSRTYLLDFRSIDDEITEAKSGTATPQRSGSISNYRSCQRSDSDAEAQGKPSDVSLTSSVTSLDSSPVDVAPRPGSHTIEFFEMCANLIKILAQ

B1: ROQUIN, endogenous (mouse) (natural protein, UniProt Q4VGL6 1-1130, looked up)
chain: MPVQAPQWTDFLSCPICTQTFDETIRKPISLGCGHTVCKMCLNKLHRKACPFDQTTINTDIELLPVNSALLQLVGAQIPEQQPITLCSGVEDTKHYEEAKKCVEELALYLKPLSSARGVGLNSTTQSVLSRPMQRKLVTLVHCQLVEEEGRIRAMRAARSLGERTVTELILQHQNPQQLSSNLWAAVRARGCQFLGPAMQEEALKLVLLALEDGSALSRKVLVLFVVQRLEPRFPQASKTSIGHVVQLLYRASCFKVTKRDEDSSLMQLKEEFRTYEALRREHDSQIVQIAMEAGLRIAPDQWSSLLYGDQSHKSHMQSIIDKLQTPASFAQSVQELTIALQRTGDPANLNRLRPHLELLANIDPSPDAPPPTWEQLENGLVAVRTVVHGLVDYIQNHSKKGADQQQPPQHSKYKTYMCRDMKQRGGCPRGASCTFAHSQEELEKFRKMNKRLVPRRPLSASLGQLNEVGLPSAPILSDESAVDLSNRKPPALPNGIASSGSTVTQLIPRGTDPSFDSSLKPVKLDHLSSSAPGSPPDLLESAPKSISALPVNPHPVPPRGPTDLPPMPVTKPIQMVPRGSQLYPAQQADVYYQDPRGSAPAFETAPYQQGMYYTPPPCVSRFVRPPPSAPEPGPPYLDHYSPYLQDRVINSQYGTQPQQYPPMYPAHYDGRRVYPAQSYTREEMFRESPIPIDIPSAAVPSYVPESRERYQQVEGYYPVAPHPAQIRPSYPRDPPYSRLPPPQPHPSLDELHRRRKEIMAQLEERKVISPPPFAPSPTLPPAFHPEEFLDEDLKVAGKYKANDYSQYSPWSCDTIGSYIGTKDAKPKDVVAAGSVEMMNVESKGTREQRLDLQRRAVETSDDDLIPFGDRPTVSRFGAISRTSKTLYQGAGPLQAIAPQGAPTKSINISDYSAYGAHGGWGDSPYSPHANIPPQGHFIEREKMSMAEVASHGKPLLSAEREQLRLELQQLNHQISQQTQLRGLEAVSNRLVLQREVNTLASQPQPPQLPPKWPGMISSEQLSLELHQVEREIGKRTRELSMENQCSVDMKSKLGTSKQAENGQPEPQNKIRTEDLTLTFSDVPNGSALTQENLSLLSNKTSSLNLSEDSEGGGDNNDSQRSGVVSNSAP
notes: ROQUIN (ROQUIN1), encoded by Rc3h1, endogenous in mouse cells; also called ROQUIN1; encoded by Rc3h1; source: endogenous, primary C57BL/6 MEFs (in situ); endogenous, EL4 cell lysate
B1 was tested, and the “fold PLA frequency over the ROQUIN:AGO2 PLA of earlier work” value was ≥ 15 fold.
